Assay: Proteinase K activity as a function of pH and after pH neutralization
Assay type: biochemical
Conditions: for recovery of proteinase K activity after neutralization: after exposure to highly acidic (pH 3.5) or basic (pH 12) conditions, neutralized to pH 7 to 7.5
Description: FIGS. 1A-1C provide information on activating proteinase K at different pH conditions.
Another method of deblocking after nucleotide addition using a conjugated enzyme is to digest the protein around the extended DNA. Proteinase K (ProK) is a hydrolase that digests proteins at aliphatic and aromatic residues making it a broad-spectrum protease^1 that could be used to fully digest TdT releasing the extended DNA for the next round of addition. This enzymatic cleavage step could potentially be spatially controlled via an electrochemically driven pH change, as depicted in FIG. 1A. […] A voltage would then be applied to electrodes near the DNA site to be cleaved for the next addition. This would cause a shift in the pH near this active electrode that would re-activate ProK to digest nearby TdT molecules, deblocking the DNA for subsequent nucleotide addition. ProK has some natural pH sensitivity^1-2 and could be further engineered to shift the activity profile into a desirable pH range.

recovery of proteinase K activity after neutralization: recovers
recovery of proteinase K activity after neutralization (listed as ProK): activity can be recovered
proteinase K activity (at pH 12.5): negligible activity
proteinase K activity (relative to activity at pH 7.3) (below pH 5 and above pH 10): complete dropoff in activity
B1: Proteinase K: hydrolase that digests proteins at aliphatic and aromatic residues, a broad-spectrum protease (protein, UniProt P06873 106-384, looked up)
Proteinase K: AAQTNAPWGLARISSTSPGTSTYYYDESAGQGSCVYVIDTGIEASHPEFEGRAQMVKTYYYSSRDGNGHGTHCAGTVGSRTYGVAKKTQLFGVKVLDDNGSGQYSTIIAGMDFVASDKNNRNCPKGVVASLSLGGGYSSSVNSAAARLQSSGVMVAVAAGNNNADARNYSPASEPSVCTVGASDRYDRRSSFSNYGSVLDIFGPGTSILSTWIGGSTRSISGTSMATPHVAGLAAYLMTLGKTTAASACRYIADTANKGDLSNIPFGTVNLLAYNNYQA
